# Laboratory results as given in publication doi:10.1101/2022.01.19.476979 (bioRxiv, 2022).
# B1: n-terminus FLAG-tagged CacyBP, recombinant purified (natural protein, UniProt Q9HB71 1-228, looked up)
# chain: MASEELQKDLEEVKVLLEKATRKRVRDALTAEKSKIETEIKNKMQQKSQKKAELLDNEKPAAVVAPITTGYTVKISNYGWDQSDKFVKIYITLTGVHQVPTENVQVHFTERSFDLLVKNLNGKSYSMIVNNLLKPISVEGSSKKVKTDTVLILCRKKVENTRWDYLTQVEKECKEKEKPSYDTETDPSEGLMNVLKKIYEDGDDDMKRTINKAWVESREKQAKGDTEF
# How the values were obtained:
# [1] = target: FHH-tagged MAB21L4, recombinant purified (human, UniProt Q08AI8 1-447, RED-tris-NTA 2nd generation dye (Monolith His-Tag labeling kit)); experiment: MST
# Chain of FHH-tagged MAB21L4, recombinant purified (Q08AI8 whole entry): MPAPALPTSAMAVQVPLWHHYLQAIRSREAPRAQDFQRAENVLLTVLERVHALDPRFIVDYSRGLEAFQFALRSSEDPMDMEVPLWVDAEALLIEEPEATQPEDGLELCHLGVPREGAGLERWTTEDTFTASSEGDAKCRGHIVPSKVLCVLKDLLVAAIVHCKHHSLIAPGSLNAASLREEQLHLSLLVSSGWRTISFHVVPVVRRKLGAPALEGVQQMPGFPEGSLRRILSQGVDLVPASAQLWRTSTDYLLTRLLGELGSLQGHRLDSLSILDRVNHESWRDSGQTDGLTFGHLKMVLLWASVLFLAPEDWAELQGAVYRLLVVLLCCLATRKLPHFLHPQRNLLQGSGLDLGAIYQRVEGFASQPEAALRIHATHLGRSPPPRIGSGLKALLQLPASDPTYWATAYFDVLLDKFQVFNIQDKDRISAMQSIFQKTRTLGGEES
# [2] = target: T1, FHH-tagged Siah1, recombinant purified (UniProt Q8IUQ4 1-282, RED-tris-NTA 2nd generation dye (Monolith His-Tag labeling kit)); experiment: MST
# T1 sequence (looked up): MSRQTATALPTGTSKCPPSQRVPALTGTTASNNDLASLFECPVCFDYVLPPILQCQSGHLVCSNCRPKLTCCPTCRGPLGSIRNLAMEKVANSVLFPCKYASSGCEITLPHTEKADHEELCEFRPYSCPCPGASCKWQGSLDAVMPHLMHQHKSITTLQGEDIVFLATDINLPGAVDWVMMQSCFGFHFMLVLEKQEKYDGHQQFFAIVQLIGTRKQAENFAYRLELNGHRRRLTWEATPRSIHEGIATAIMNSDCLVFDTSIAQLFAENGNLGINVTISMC
binder,measurement,setting,value
B1,Kd,[1],2.1 µM
same,Kd,[2],9.8 µM
